{"source": "patent US20020045158", "about": "“Cells for drug discovery” (published 2002)", "key": {"[1]": {"tested_on": "Zif268", "experiment": "EMSA", "settings": "target sequence not given; literature 2-30 nM; cited from earlier work"}, "[2]": {"tested_on": "SP-1 zinc finger domain (Homo sapiens)", "experiment": "EMSA", "settings": "target sequence not given"}, "[3]": {"molecular_target": "T1, ZFP3A-VP16 / KRAB-ZFP3A (artificial, UniProt P08047)", "T1 chain": "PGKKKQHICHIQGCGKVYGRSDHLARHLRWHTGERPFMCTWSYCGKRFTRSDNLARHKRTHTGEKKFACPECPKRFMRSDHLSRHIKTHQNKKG", "experiment": "cell_activity; VP16 fusion on cotransfected reporter; KRAB fusion lowered hKCa4 conductance to 1.0 nS vs 10.0 for empty vector", "settings": "tags: VP16 or KRAB fusion"}, "[4]": {"molecular_target": "T2, VEGF3a/1 six-finger ZFP (artificial (human SP-1 backbone))", "T2 chain": "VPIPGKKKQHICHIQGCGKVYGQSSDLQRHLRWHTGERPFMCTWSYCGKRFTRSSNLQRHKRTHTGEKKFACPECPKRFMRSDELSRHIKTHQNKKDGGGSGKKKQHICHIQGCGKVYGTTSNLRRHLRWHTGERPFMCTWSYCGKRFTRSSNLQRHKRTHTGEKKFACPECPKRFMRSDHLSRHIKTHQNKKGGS", "experiment": "competition; half-life of complex relative to VEGF1, EMSA competition at 37 C", "settings": "tags: MBP N-terminal fusion; label: 5' 32P", "protocol": "For the EMSA studies, 20 μl binding reactions contained 10 fmole (0.5 nM) 5′ ³²P-labeled double-stranded target DNA, 35 mM Tris HCl (pH 7.8), 100 mM KCl, 1 mM MgCl₂, 5 mM dithiothreitol, 10% glycerol, 20 μg/ml poly dI-dC, 200 μg/ml bovine serum albumin, and 25 μM ZnCl₂. Protein was added as one fifth volume from a 3-fold dilution series. Binding was allowed to proceed for 60 min at either room temperature or 37° C. Polyacrylamide gel electrophoresis was carried out at room temperature or 37° C. using precast 10% or 10-20% Tris-HCl gels (BioRad) and standard Tris-Glycine running buffer. The room temperature assays yielded an apparent Kd for this VEGF3a/1 protein of approximately 1.5 nM. Thus, the 18-bp binding ZFP bound with high affinity to its target site. […] When binding and electrophoresis were performed at 37° C., the apparent Kd of VEGF3a/1 was approximately 9 nM when tested against the 18-bp target, compared to a Kd of 40 nM for VEGF1 tested against its target.\nThe apparent Kd is a useful measure of the affinity of a protein for its DNA target. However, for a DNA binding site either in vitro or in vivo, its occupancy is determined to a large extent by the off-rate of the DNA-binding protein. This parameter can be measured by competition experiments. The conditions for EMSA were as described above; binding and electrophoresis were performed at 37° C. […]"}}, "data": [{"molecule": "Zif268 target site", "values": [{"measurement": "Kd", "setting": "[1]", "result": 60, "unit": "nM"}]}, {"molecule": "SP-1 target site", "values": [{"measurement": "Kd", "setting": "[2]", "result": 65, "unit": "nM"}]}, {"molecule": "hKCa4 target site (dsDNA) DNA 1: GGGGAGGGC DNA 2: GCCCTCCCC", "values": [{"measurement": "activity", "setting": "[3]", "result": "> 5", "unit": "fold activation"}]}, {"molecule": "VEGF 18-bp target JVF9/JVF10 (dsDNA) DNA 1: AGCGAGCGGGGAGGATCGCGGAGGCTTGGGGCAGCCGGGTAG DNA 2: CGCTCTACCCGGCTGCCCCAAGCCTCCGCGATCCTCCCCGCT", "values": [{"measurement": "binding signal", "setting": "[4]", "result": "> 10", "unit": "fold"}]}]}
